This assay has as its target thiolated anti-CD34 antibody conjugated to gas-filled microbubbles encapsulated with DSPS and comprising DSPE-PEG2000-MAL. Kind of assay: flow cytometry of anti-CD34-conjugated microbubbles after incubation with the FITC-labelled secondary antibody and washing.

“FITC-conjugated goat-anti-mouse antibody”: the % of microbubble population fluorescent is 98%.

For the origin of these results see patent publication US20020102215A1.
